Source: patent publication US20190106487A1 (Sanofi, published 2019)

T1: mIL1RAcP-Fc (murine, UniProt Q61730 21-359)
T1 construct: also called P013_04; P013-04
T1 sequence (looked up): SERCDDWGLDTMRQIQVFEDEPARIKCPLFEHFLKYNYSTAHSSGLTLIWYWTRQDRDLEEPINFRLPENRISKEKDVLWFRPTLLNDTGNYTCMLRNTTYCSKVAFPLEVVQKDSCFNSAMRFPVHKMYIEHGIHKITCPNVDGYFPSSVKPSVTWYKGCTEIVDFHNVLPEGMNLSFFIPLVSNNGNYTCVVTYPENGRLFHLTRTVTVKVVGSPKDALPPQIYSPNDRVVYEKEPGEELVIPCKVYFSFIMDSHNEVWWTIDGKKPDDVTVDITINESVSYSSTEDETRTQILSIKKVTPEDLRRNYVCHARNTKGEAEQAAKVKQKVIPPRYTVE

T2: rhIL-1RAcP/Fc Chimera (human, UniProt Q9NPH3 21-359)
T2 construct: also called P013_03; P013-03
T2 sequence (looked up): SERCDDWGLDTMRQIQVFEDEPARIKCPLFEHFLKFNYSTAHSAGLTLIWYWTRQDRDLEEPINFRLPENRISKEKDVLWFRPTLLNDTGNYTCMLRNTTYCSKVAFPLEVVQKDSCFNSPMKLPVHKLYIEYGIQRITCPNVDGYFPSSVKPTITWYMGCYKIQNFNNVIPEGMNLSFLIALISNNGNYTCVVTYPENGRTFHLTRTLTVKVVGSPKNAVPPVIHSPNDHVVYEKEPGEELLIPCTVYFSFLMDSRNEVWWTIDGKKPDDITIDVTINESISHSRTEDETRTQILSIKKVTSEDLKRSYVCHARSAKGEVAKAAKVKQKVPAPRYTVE

T3: human IL-1RAcP on 293T/17-FR cells (human, UniProt Q9NPH3 21-570)
T3 sequence (looked up): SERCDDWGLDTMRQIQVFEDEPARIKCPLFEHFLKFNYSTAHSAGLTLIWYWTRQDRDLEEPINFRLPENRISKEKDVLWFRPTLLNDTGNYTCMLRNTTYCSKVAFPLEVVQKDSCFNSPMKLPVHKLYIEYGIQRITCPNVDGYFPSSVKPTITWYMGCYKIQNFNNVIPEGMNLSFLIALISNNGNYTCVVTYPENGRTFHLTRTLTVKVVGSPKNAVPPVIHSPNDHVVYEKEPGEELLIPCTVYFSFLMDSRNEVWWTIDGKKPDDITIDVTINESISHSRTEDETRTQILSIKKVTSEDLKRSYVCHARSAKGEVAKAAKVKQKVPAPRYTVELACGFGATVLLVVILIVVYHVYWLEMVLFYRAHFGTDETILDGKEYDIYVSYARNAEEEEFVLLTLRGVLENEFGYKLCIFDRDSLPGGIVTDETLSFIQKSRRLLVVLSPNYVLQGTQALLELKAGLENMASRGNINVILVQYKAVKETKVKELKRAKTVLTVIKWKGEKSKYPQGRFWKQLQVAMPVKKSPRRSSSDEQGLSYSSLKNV


Legend:
mIL1RAcP-Fc = target: T1, mIL1RAcP-Fc; assay: ELISA, primary supernatant, coated mu-IL-1RAcP-Fc
rhIL-1RAcP/Fc Chimera [1] = target: T2, rhIL-1RAcP/Fc Chimera; assay: ELISA, primary supernatant, coated hu-IL-1RAcP-Fc
Source text: Microtiter plates were coated IL-1RACP and/or IL12Rβ1 protein (recombinant Fc chimeric conjugates of human IL-1RACP or IL12Rβ1). After a blocking process, specific antibodies from B-cell supernatants bind to the targets and are then detected by a POD-labeled anti-rabbit IgG antibody. The IL12Rβ1 binding was used as a counterscreen. IL-1RACP protein was tagged with a linker, huFc and His like the IL12Rβ1 protein. Antibodies which bind to the tag were positive in both assays, whereas antigen specific antibodies just bound to IL-1RACP and not to IL12Rβ1.
12.5 μL 0.5 μg/mL IL-1RACP protein in PBS was transferred to a microtiter plate, incubated and washed 3× with Wash Buffer. 90 μL Block Buffer was added to each well, incubated and washed. 12.5 μl Standard Antibody (rabbit mAb against IL-1RAcP, anti IL12Rbeta1 antibody: IL-12Rbeta1 antibody; GeneTex; Cat. No. GTX103917) or sample diluted in ELISA buffer was added, incubated and washed. 12.5 μl 1:5000 POD-Antibody (Anti-rabbit IgG, peroxidase-linked species-specific Fab2 fragment (from donkey) (ECL); assay dilution: 1:5000) in Elisa Buffer was added, incubated and washed. 15 μl TMB was added and 15 μl HCl was added after sufficient development. Absorbance (Optical Density O.D.) was read at 450 nm/620 nm.

[2] = target: T3, human IL-1RAcP on 293T/17-FR cells; assay: cell-based or functional assay
rhIL-1RAcP/Fc Chimera [3] = target: T2, rhIL-1RAcP/Fc Chimera; assay: ELISA, recombinant purified mAb

| mu-IL1RaP ELISA (OD) (mIL1RAcP-Fc) | hu-IL1RaP ELISA (OD) (rhIL-1RAcP/Fc Chimera [1]) | functional reporter gene assay (% inhibition), 0.04 µg/mL mAb [2] [%] | functional reporter gene assay (% inhibition), 0.2 µg/mL mAb [2] [%] | functional reporter gene assay (% inhibition), 1 µg/mL mAb [2] [%] | functional reporter gene assay (% inhibition), 5 µg/mL mAb [2] [%] | primary supernatant functional assay (% inh.), NF-kB luciferase reporter [2] [%] | EC50 (rhIL-1RAcP/Fc Chimera [3]) [µg/mL] | Binder |
| --- | --- | --- | --- | --- | --- | --- | --- | --- |
| 0 | 3.4 | 47 | 89 | 97 | 98 | 74 | 0.027 | P013.S.01.B.A04 (antibody, V domains shown, rabbit monoclonal antibody; also called P013.A.00085.C03) VH: QEQLEESGGGLVKPGGTLTLTCKASGIDFSSYYYMCWVRQAPGKGLEWIACIFIGYGDVTWYASWAKGRFTISKASSTTVTLQMTSLTAADTATYFCARALGSSGYRVNLWGPGTLVTVSS VL: ALVMTQTPSSVSAAVGGTVTINCQASENIYSSLAWYQQKPGQPPKLLIYDASDLASGVPSRFKGSGSGKEFTLTISDLESDDAATYYCQQGYYSGGTDNDVFGGGTEVVVK |
| 0.1 | 3.3 | 52 | 81 | 93 | 96 | 85 |  | P013.S.01.B.B05 (antibody, V domains shown, rabbit monoclonal antibody; also called P013.A.00030.D07) VH: QSLEESGGRLVTPGTPLTLTCTASGFSLSSYYMSWVRQAPGKGLEWVGIISGSASTYYATWAKGRFTISKTSTTVDLKIASPTTEDTATYFCARTHYAAVAGYGYASRLDLWGQGTLVTVSS VL: AIEMTQSPPSLSASVGETVRIRCLASEDIYSGISWYQQKPGKPPTLLIYAASNLESGVPPRFSGSGSGTDYTLTIGGVQAEDAATYYCLGGYSYSNTGPTFGAGTKVEIK |
| 0 | 3.6 | 4 | 19 | 47 | 87 | 88 |  | P013.S.02.B.D04 (antibody, V domains shown, rabbit monoclonal antibody; also called P013.A.00086.A06) VH: QSLEESGGDLVQPGGSLTLTCKASGFSFSASYWICWVRQAPGKGLEWIGCIYIGGGGRYYASWAKGRFTISKTSSTTVTLQMTSLTAADTATYFCARDPVTSGSDYVYDLWGPGTLVTVAS VL: AYDMTQTPASVEVAVGGTVTIKCQASESISTWLAWYQQKPGQPPNLLIYRASTLASGVPSRFYGSGYGTEFTLTISGVESADAATYYCQQGYTVNNIDNVFGGGTEVVVK |
| 0.4 | 2.2 | 1 | 1 | 10 | -5 | -36 |  | P013.S.02.B.G01 (antibody, V domains shown, rabbit monoclonal antibody; also called P013.A.00015.G07) VH: QSVEESGGRLVTPGGSLTLTCKVSGFSLSDYDIYWVRQAPGKGLEWIGVIDIENSVYYPTWAKGRFTISKTSTTVDLKITSPTTEDTATYFCARGDYIMTLDLWGQGTLVTVSS VL: AAVLTQTPSPVSAAVGGTVTISCQASQSVYKNNRLAWYQQKPGQPPKLLIYLASTLASGVPSRFKGSGSGTQFTLTISDLESDDAATYYCAGGYSTISENAFGGGTEVVVK |
|  | 3.4 | 44 | 60 | 93 | 91 | 72 | 0.447 | P013.S.01.B.E06 (antibody, V domains shown, rabbit monoclonal antibody; also called P013.A.00030.F07) VH: QSLEESGGDLVKPGASLTLTCTASGFSFSSTYYMCWVRQAPGKGLEWIACIYAGSSGSTYYASWAKGRFTISKTSSTTVTLQMTSLTAADTATYFCARVDGSSSGSWDLWGPGTLVTVSS VL: AIEMTQTPSSVSAAVGGTVTINCQASQNIYSNLAWYQQKPGQRPKLLIYAASLLASGVPSRFKGNGSGTEYTLTISDLESADAATYYCQGAVYSGNTEWAFGGGTEVVVK |
| 0.3 | 3.6 | 38 | 58 | 95 | 96 | 97 | 0.046 | P013.S.01.B.F04 (antibody, V domains shown, rabbit monoclonal antibody; also called P013.A.00133.A12) VH: LEQSGGGAEGGLVKPGGSLELCCKASGFSLSTSYWRCWVRQAPGKGLEWIGCIYAGSSDATYYANWVNGRFTLSRDIDQSTGCLQLNSLTAADTAMYYCASGVGFGYFNLWGQGTLVTVSS VL: ALVMTQTPSPVSAAVGGTVTINCQASEDIYSNLAWFQQKPGQPPKLLIYDASTLASGVPSRFSGSGSGTEFTLTISGLQSDDAATYYCLGVYTHISADNAFGGGTEVVVK |
| 1.1 | 1.4 | 6 | 0 | 5 | 17 | -39 |  | P013.S.02.B.G03 (antibody, V domains shown, rabbit monoclonal antibody; also called P013.A.00014.D07) VH: QSVEESGGRLVTPGTPLTLTCTVSGFSLSSYGMIWVRQAPGEGLEWIGFIGRGGATWYASWVKGRFTISKTSTTVDLKITSPTASDTATYFCARDGDSSDYYAFNLWGQGTLVTVSS VL: DVVMTQTPASVSEPVGGTVTIKCQASQNIGSNLAWYQQRSGQPPKLLIYGASTLASGVPSRFSGSGSGTEFTLTISGVQSADAATYFCQCSGYDITGVFPFGGGSEVVVK |
| 0.8 | 3 | 25 | -2 | 28 | 28 | 36 |  | P013.S.02.B.H02 (antibody, V domains shown, rabbit monoclonal antibody; also called P013.A.00015.B10) VH: QSLEESGGRLVTPGTPLTLTCTVSGFSLSSCAMIWVRQAPGKGLEWIGFIGRGGSTWYASWVNGRFTISKTSTTVDLKITSPTTEDTATYFCARDGDFSDYYTFNLWGQGTLVTVSS VL: DVVMTQTPASVSEPVGGTVTIKCQASQNIGSNLAWYQQKPGQPPKLLIYGASTLASGVPSRFSGSGSGTEFTLTISGVQSADATTYYCQCSGYDTTGVFPFGGGSEVVVR |
| 0 | 3.3 | 77 | 94 | 98 | 99 | 95 | 0.225 | P013.S.01.B.A03 (antibody, V domains shown, rabbit monoclonal antibody; also called P013.A.00088.A07) VH: QEQLEESGGDLVQPEGSLTVTCTASGFSFSFGYYMCWVRQAPGKGLEWIACIYGDSSDTLYANWAKGRFTVSKTSSTTVTLQMTSLTAADTATYFCARYPGGSYYNLWGPGTRVTVSS VL: ALVMTQTPASVEAAVGGTVTIKCQASQTISINLAWYQQKPGQRPKLLIYYASTLASGVPSRFSGSGSGTEFTLTISGVQSDDAATYYCQQGYTEDNIDNTFGGGTEVVVK |
